# Assay results from paper PMC9884143 (The Journal of Biological Chemistry, 2023).
# Biological target: T1, SARS-CoV-2 Spike receptor-binding domain (RBD), original strain (SARS-CoV-2, original strain, UniProt P0DTC2)
# Experiment: not given
# Conditions: not given
row,Binder,Kd [nM]
1,CoV2-YD-35 (VHH) VHH: DVQLVESGGGLVQAGDSLRLSCTASGRTFTTNAMGWFRQAPGKEREFVAAISWSYGTTYYSDPVEGRFTISRSNAKNTVYLQMNSLKPDDTAVYYCTLRSRFNAAAWTTEAAFDYWGQGTQVTVS,0.14
2,CoV2-YD-38 (VHH) VHH: DVQLVESGGGLVQAGDSLRLSCAASGRTFTTNAMGWFRQAPGKEREFVAAISWNSGTTYYSDPVKGRFTISRDNAKNTVYLQMNSLKPGDTAVYYCTLRSRFNAYAWTTENAFDYWGQGTQVTVS,0.561
3,CoV2-YD-36 (VHH) VHH: QVQLVESGGGLVQAGDSLRLSCTASGRTFTTNAMGWFRQAPGKEREFVAAITWSYGTTYYSDPVEGRFTISRSNAKNTVYLQMNSLKPDDTAVYYCTLRSRFNAAAWTTEAAFDYWGQGTQVTVS,0.154
4,CoV2-YD-37 (VHH) VHH: DVQLVESGGGLVQAGDSLRLSCTASGRTFTTNAMGWFRQAPGKEREFVAAISWNYDTTYYSDPVEGRFTISRSNAKNTVYLQMNSLKPDDTAVYYCTLRSRFNAAAWTTEAAFDYWGQGTQVTVS,0.411
5,CoV2-YD-5 (VHH) VHH: QVQLVESGGGLVQAGGSLRLSCVASGTTISTYNLLWFRQAPGQQREWVASISSGGDTSYAGSVKGRFTISRDNTENTMYLQMNSLKPEDTAVYYCHGANAAHGMDYWGKGTQVTVS,0.114
6,CoV2-YD-12 (VHH) VHH: QVQLVESGGGLVQAGGSLRLSCAASGSTFSRLNILWWRQAAGKPREWVATSTDGGTRNYAAAVKGRFTISRDNAKNTVYLQMNSLKPEDTAVYYCYTPDYWGQGTQVTVS,0.145
7,CoV2-YD-14 (VHH) VHH: QVQLVESGGGLVQAGGSLRLSCSASGNTFSTYSLSWYRQAPGKQREFVAAISSGGSTSYANSVKGRFSISRDNAKKTMYLQMNSLKPEDTAVYYCYVVTTLMDYWGQGTQVTVS,0.152
8,Rescue-1 (VHH) VHH: DVQLVESGGGLVQAGDSLRLSCTASGRTFTTNAMGWFRQAPGKEREFVAAITWSYGTTYYSDPVEGRFTISRDNAKNTVYLQMNSLKPEDTAVYYCFYERLAWDTSTYWGQGTQVTVS,50.9
9,Rescue-2 (VHH) VHH: DVQLVESGGGLVQAGDSLRLSCTASGRTFTTNAMGWFRQAPGKEREFVAAISWNYDTTYYSDPVEGRFTISRDNAKNTVYLQMNSLKPEDTAVYYCFYERLAWDTSTYWGQGTQVTVS,26.8
10,Rescue-3 (VHH) VHH: DVQLVESGGGLVQAGDSLRLSCTASGRTFTTNAMGWFRQAPGKEREFVAAISWNSGTTYYSDPVKGRFTISRDNAKNTVYLQMNSLKPEDTAVYYCFYERLAWDTSTYWGQGTQVTVS,24.9
11,CoV2-YD-11 (VHH) VHH: QVQLVESGGGLVQAGGSLRLSCVVSGTTFSRYDMGWYRQAPGKARETVATISRSGTTNYAYFVKGRFTITRDNAKNTVYLQMNSLKPEDTAVYYCYIFGLDYWGQGTQVTVS,0.179
12,CoV2-YD-13 (VHH) VHH: QVQLVESGGGLVQAGGSLRLSCAASGFTFDDYAIGWFRQAPGKEREGVSCISSSGGFTNYADSVKGRFTISSDNAKNTVYLQMNSLKPEDTAVYYCAVVVNGYGLDEWAYDYWGQGTQVTVS,2.43

# Biological target: T1, SARS-CoV-2 Spike receptor-binding …
# Experiment: SPR
# Conditions: both partners purified
row,Binder,binding result
1,CoV2-YD-10 (VHH) VHH: QVQLVESGGDLVQPGGSLRLSCAASGFTFSTYDMGWFRQGPGKEREFVAQIAPNGITTYYADSVKGRFTISRDNAKRMVFLQMNSLKPEDTAVYFCAVDLAPWGSLKLRTNPARGQGTQVTVS,binds
